How the values were obtained:
[1] = tested on: MMP-3; test: MMP-3 ELISA on cell lysates; format: cell-based, human; conditions: 10 ng/ml, 48 hours
Protocol: DuoSet ELISA kits (R&D Systems) were used to quantify uPAR, PAI-1, and MMP-3. For uPAR and PAI-1 measurement, MDA cells were seeded in triplicate in 96-well plate at 5.0×10^4 cell/mL density with complete L-15 media and treated with 10 ng/mL of either cmvIL-10 or hIL-10 for the indicated times and supernatants were collected daily. The ELISA was carried out on supernatants according to manufacturer's instructions using and following the addition of substrate and stop solution, absorbance of the plate was measured at 450 nm using a Dynex Opsys MR microplate reader. Sample concentrations were interpolated from a standard curve using linear regression analysis. For cell-associated MMP-3, MDA cells were seeded in 96-well plates and treated with cmvIL-10 as above. Cells were treated with cell lysis buffer (150 mM NaCl, 20 mM HEPES, 0.5% Triton-X-100, 1.0 mM NaOV4, 1.0 mM EDTA, 0.1% NaN3) supplemented with 1× protease inhibitors (Calbiochem, EMD Chemicals, San Diego Calif.) and were collected daily for the indicated time points. The lysates were evaluated for MMP-3 according to the manufacturer's instructions (R&D Systems).

[2] = tested on: MDA-MB-231 cells; test: Cell viability under etoposide, Cell Titer Glo; format: cell-based, human
Protocol: Cells were seeded into 96-well dishes at a density of 1×10^4 cell per well in complete medium with varying doses of cmvIL-10, and then cell viability measured at the indicated time points using the Cell Titer Glo Assay kit according to manufacturer's instructions (Promega). DNA synthesis was measured in cells prepared in the same way using the BrdU Cell Proliferation ELISA Kit (Roche, Basel, Switzerland). For experiments using inhibitors, cells were cultivated in 96-well dishes as above with a final concentration of 10 μM inhibitor and BrdU incorporation evaluated after 72 hrs. For cell counts, cells were seeded into 6-well plates at a density of 2×10^5 cells per well, harvested via trypsinization, and counted using a hemacytometer at the indicated time points. The TACS Annexin V-FITC Detection Kit (Trevigen, Gaithersburg, Md.) was used to stain cells harvested from 70% confluent T75 flasks that had been treated with 100 μM etoposide for 48 hrs in the presence or absence of 100 ng/ml cmvIL-10. Cells were then analyzed via flow cytometry to detect fluorescence. For viability assays, Cell Titer Glo reagent was utilized to quantify cells that had been seeded into 96-well dishes at a density of 1×10^4 cell per well in complete medium with varying doses of etoposide in the presence or absence of 100 ng/ml cmvIL-10 as indicated

[3] = tested on: Stat3; test: Cell-based Stat3 ELISA; design: species or system human; conditions: varying doses, 15 min
Protocol: For the Stat3 ELISA, cells were seeded into 96-well dishes at a density of 1×10^4 cell per well, treated with varying doses of cmvIL-10 in triplicate for 15 min, and then lysed in the plate and assayed for total or pStat3 using the Cell-based Stat3 ELISA kit according to manufacturer's instructions (R&D Systems). The detection of hIL-10 in supernatants from MDA-MB-231 cell cultures was performed using the IL-10 ELISA DuoSet kit as directed (R&D Systems).

[4] = biological target: T1, CXCR4 (Homo sapiens, UniProt P61073); test: Calcium flux assay in HEK293 cells; format: cell-based
T1 construct: HEK293 cells, which endogenously express both CXCR4 and IL-10R; endogenous in cells; host or cells: HEK293
T1 sequence (P61073 whole entry): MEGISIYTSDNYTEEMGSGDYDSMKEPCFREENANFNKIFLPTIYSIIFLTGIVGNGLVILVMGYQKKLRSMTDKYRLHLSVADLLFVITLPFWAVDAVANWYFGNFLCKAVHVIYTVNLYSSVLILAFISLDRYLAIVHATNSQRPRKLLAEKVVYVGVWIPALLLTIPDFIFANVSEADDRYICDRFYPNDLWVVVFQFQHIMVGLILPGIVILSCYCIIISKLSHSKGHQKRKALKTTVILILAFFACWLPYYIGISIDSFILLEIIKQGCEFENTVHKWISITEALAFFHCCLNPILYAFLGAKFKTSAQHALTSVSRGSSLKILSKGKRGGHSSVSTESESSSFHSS
Protocol: Calcium flux assays were performed as described (Arnolds K L, et al. Virology 439:122-131.). Briefly, cells were resuspended in 2 mls calcium assay buffer (RPMI with 25 mM of HEPES) at a density of 5×10^5 cells/ml per sample. Each sample was labeled with 2 μl of Fluo-4AM (Invitrogen, Grand Island, N.Y.), wrapped in foil, at 37° C. for 30 minutes with agitation at 10-minute intervals. Following incubation, each sample was pelleted, resuspended in calcium assay buffer, and transferred into an eppendorf tube for flow cytometry using the BD C6 Accuri. Fluorescence intensity of each sample was measured for 20 seconds to establish baseline, then stimulus (CXCL12, in the presence or absence of cmvIL-10, as indicated) was added via micropipetting directly into the sample while fluorescence intensity was measured. Kinetic fluorescence intensity analysis was performed with FlowJo software v9.4.9 (FlowJo, Ashland, Oreg.). Purified recombinant cmvIL-10 was purchased from R&D Systems (Minneapolis, Minn.) and purified recombinant CXCL12 was purchased from Peprotech (Rocky Hill, N.J.). For each calcium flux assay, ionomycin (Sigma) was a positive control for Fluo-4AM loading and PBS served as a negative control for the addition of stimulus.

[5] = tested on: MTSS1; test: MTSS1 immunoblotting; format: cell-based, human; conditions: 10 ng/mL, beyond 24 hours
Protocol: Confluent T-75 flasks of MDA-MB-231 cells were treated with 10 ng/mL cmvIL-10 (R&D systems) for the indicated times, then scraped and harvested into cell lysis buffer (150 mM NaCl, 20 mM HEPES, 0.5% Triton-X-100, 1.0 mM NaOV4, 1.0 mM EDTA, 0.1% NaN3) containing 1× protease inhibitors (Calbiochem). Cell lysates were clarified via centrifugation, heated at 70° C. for 10 min in reducing buffer, and the proteins separated on a 4-12% Tris-Base SDS-PAGE gel (Life Technologies, Grand Island, N.Y.). After transfer to nitrocellulose, the membrane was incubated in blocking solution (5% milk+TBS) for 1 hr at room and then probed with primary antibody: 1:1000 dilution for MMP-3 or MTSS-1 antibodies (Santa Cruz), or MAPK antiserum (Cell Signaling Tech, Danvers, Mass.), in blocking solution overnight, oscillating on a platform rocker at 4.0° C. After three washes, the membranes were incubated with a 1:2000 dilution of appropriate AP-conjugated secondary antibody on a platform rocker at room temperature for 1 hr. Protein bands were detected using western blue stabilized AP substrate (Promega, Madison, Wis.). For zymography, cell lysates were denatured in SDS buffer under non-reducing conditions without heat, and run on a 4-16% Zymogram gel using Tris-Glycine SDS running buffer according to manufacturer's instructions. […]

B1: cmvIL-10 (protein)
chain: ATTTTIKNTKPQCRPEDYATRLQDLRVTFHRVKPTLQREDDYSVWLDGTVVKGCWGCSVMDWLLRRYLEIVFPAGDHVYPGLKTELHSMRSTLESIYKDMRQCPLLGCGDKSVISRLSQEAERKSDNGTRKGLSELDTLFSRLEEYLHSRK
For B1, the “cell-associated MMP-3 (cell lysates)” value [1] was “increased significantly”, the “cell viability over time” value ([2]; 10 μM etoposide, 100 ng/ml cmvIL-10) was “able to overcome etoposide-induced effects over time and proliferate robustly” and the overall cell viability ([2]; varying doses of etoposide, 100 ng/ml cmvIL-10, 48 hours) was “increased overall cell viability”. For the same molecule, the “amount of Stat3 phosphorylation (pStat3 to total Stat3)” value [3] was “increased in a dose-dependent manner”, the “peak fluorescence intensity of calcium mobilization” value ([4]; CXCL12 0.1 μg/ml plus cmvIL-10 0.1 μg/ml) was “significantly higher” and the calcium mobilization ([4]; cmvIL-10 alone) was “did not induce calcium mobilization”. The “MTSS1 protein (82 kD band)” value [5] was “significant decrease in MTSS1 expression”.

From US20180128830A1, “DETECTION OF HUMAN CYTOMEGALOVIRUS IN BREAST CANCER” (priority 2015, published 2018)
